This note sets out measurements from publication PMC11988184.

B1: c-Myc tagged MIRO1 (mitochondrial rho GTPase 1), wild type [not stated] / MCU (mitochondrial Ca2+ uniporter), endogenous in HEK cells [human (endogenous in HEK)] (parent)
chain 1: MKKDVRILLVGEPRVGKTSLIMSLVSEEFPEEVPPRAEEITIPADVTPERVPTHIVDYSEAEQSDEQLHQEISQANVICIVYAVNNKHSIDKVTSRWIPLINERTDKDSRLPLILVGNKSDLVEYSSMETILPIMNQYTEIETCVECSAKNLKNISELFYYAQKAVLHPTGPLYCPEEKEMKPACIKALTRIFKISDQDNDGTLNDAELNFFQRICFNTPLAPQALEDVKNVVRKHISDGVADSGLTLKGFLFLHTLFIQRGRHETTWTVLRRFGYDDDLDLTPEYLFPLLKIPPDCTTELNHHAYLFLQSTFDKHDLDRDCALSPDELKDLFKVFPYIPWGPDVNNTVCTNERGWITYQGFLSQWTLTTYLDVQRCLEYLGYLGYSILTEQESQASAVTVTRDKKIDLQKKQTQRNVFRCNVIGVKNCGKSGVLQALLGRNLMRQKKIREDHKSYYAINTVYVYGQEKYLLLHDISESEFLTEAEIICDVVCLVYDVSNPKSFEYCARIFKQHFMDSRIPCLIVAAKSDLHEVKQEYSISPTDFCRKHKMPPPQAFTCNTADAPSKDIFVKLTTMAMYPHVTQADLKSSTFWLRASFGATVFAVLGFAMYKALLKQR
chain 2: VHQRIASWQNLGAVYCSTVVPSDDVTVVYQNGLPVISVRLPSRRERCQFTLKPISDSVGVFLRQLQEEDRGIDRVAIYSPDGVRVAASTGIDLLLLDDFKLVINDLTYHVRPPKRDLLSHENAATLNDVKTLVQQLYTTLCIEQHQLNKERELIERLEDLKEQLAPLEKVRIEISRKAEKRTTLVLWGGLAYMATQFGILARLTWWEYSWDIMEPVTYFITYGSAMAMYAYFVMTRQEYVYPEARDRQYLLFFHKGAKKSRFDLEKYNQLKDAIAQAEMDLKRLRDPLQVHLPLRQIGEKD

In this assay the parent is B1. Nature of the assay: co-immunoprecipitation (anti-Myc IP, immunoblot quantification). To be noted: with MCU (mitochondrial Ca2+ uniporter), c-Myc-tagged MIRO1 constructs expressed in HEK cells for 24 h, n = 6 independent experiments, parent: 0.26, read off a plot. (In western blotting, separated proteins are transferred to a membrane and probed.)
In the case of chain 1 E208K E328K, the response was 0.065 AU. For chain 1 S432N the value was 0.36 AU.
